{"source": "patent US8278415B2", "about": "“Dimeric high affinity EGFR constructs and uses thereof” (Centocor, Inc., priority 2006, dated 2012)", "molecules": {"B1": {"name": "4316: P190-MMB construct with the longest linker, Flex GGGGS, n 4, SEQ ID NO: 81 (protein)", "chain": "GGDPCTWEVWGRECLQGGGGSGGGGSGGGGSGGGGSCPPCPAPEAAGGPSVFLFPPKPKDTLMISRTPEVTCVVVDVSQEDPEVQFNWYVDGVEVHNAKTKPREEQFNSTYRVVSVLTVLHQDWLNGKEYKCKVSNKGLPSSIEKTISKAKGQPREPQVYTLPPSQEEMTKNQVSLTCLVKGFYPSDIAVEWESNGQPENNYKTTPPVLDSDGSFFLYSRLTVDKSRWQEGNVFSCSVMHEALHNHYTQKSLSLSLGK"}}, "key": {"sEGFR-MMB": {"biological_target": "T1, sEGFR-MMB (Homo sapiens, UniProt P00533)", "T1 construct": "made in house; host or cells: HEK 293E", "assay": "P190-MMB constructs, solid phase assays (BIAcore and ELISA) on immobilized sEGFR-MMB", "assay_type": "binding", "source_text": "In contrast, 190-MMB as the 4316 construct, binds EGFR and the presence of excess EGF promotes its binding."}, "A431 cells": {"system": "A431 cells", "assay": "FACS of P190-MMB constructs or cetuximab on A431 cells", "assay_type": "cell-based, human", "details": "excess EGF"}, "EGFR": {"biological_target": "T2, EGFR (Homo sapiens, UniProt P00533)", "T2 construct": "endogenous in cells", "assay": "FACE (Fast Activated Cell-based ELISA) of EGFR phosphorylation"}}}
{"molecule": "B1", "values": [{"measurement": "on-rate", "setting": "sEGFR-MMB; BIAcore, no dissociation constant obtained", "value": "much more pronounced on-rate than the other constructs"}, {"measurement": "binding in solid phase assays and cell-based FACS", "setting": "sEGFR-MMB; comparison of linker lengths", "value": "best binder"}, {"measurement": "effect of EGF on binding to A431", "setting": "A431 cells", "value": "enhanced binding"}, {"measurement": "interference with EGF activation of EGFR", "setting": "EGFR", "value": "nor interfere with EGF activation of EGFR"}, {"measurement": "EGFR phosphorylation (receptor activation)", "setting": "EGFR; absence of EGF", "value": "did not induce EGFR phosphorylation"}]}
